Reference: publication PMC10520083 (2023)
Where a chain is given by its changes, count along the chain named. Names may count otherwise. Read-outs that look alike come from different tables or passages of the source.

T1: human α7 nicotinic acetylcholine receptor with the ICD replaced by a short linker and a C-terminal Rho1D4 tag … (human, UniProt P36544 23-502, N-linked glycans at Asn23, Asn67 and Asn110)
T1 chain: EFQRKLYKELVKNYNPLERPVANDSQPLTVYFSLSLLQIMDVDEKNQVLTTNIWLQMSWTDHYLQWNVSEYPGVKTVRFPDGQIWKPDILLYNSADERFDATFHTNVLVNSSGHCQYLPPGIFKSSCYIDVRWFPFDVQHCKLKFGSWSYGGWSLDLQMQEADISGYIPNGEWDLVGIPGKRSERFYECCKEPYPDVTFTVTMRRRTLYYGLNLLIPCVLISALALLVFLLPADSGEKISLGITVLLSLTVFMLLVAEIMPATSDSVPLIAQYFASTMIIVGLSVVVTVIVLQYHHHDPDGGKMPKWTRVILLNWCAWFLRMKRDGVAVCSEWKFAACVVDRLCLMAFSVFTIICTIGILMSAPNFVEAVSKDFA

B1: nanobody E3 (VHH)
VHH: AVQLQASGGGLVQAGDSLRLSCAASGGTFSHYAVGWFRQAPGKEREFVAAISWSGRSTSFANSVKGRFTISRDSAKNTAYLQMNNLKPEDTAVYCCAPARFGTGSAARDEYDDCGQGTQVTVSS
B2: nanobody C4 (VHH)
VHH: QVQLVESGGGLVQAGGSLKLSCAASGFTFAHYAMVWFRQAPGKEREFVAGISWSGASTYYASSVKGRFTISRDNAKNTVYLQMNSLKPEDTAVYYVAAARFGVGVDDDYSYWGQGTQVTVSS
B3: nanobody E3 E110Q (VHH)
VHH: B1 VHH with E110Q
B4: nanobody E3 R56A (VHH)
VHH: B1 VHH with R56A

How the values were obtained:
[1] = target: human α7 nicotinic acetylcholine receptor with the ICD replaced by a short linker and a C-terminal Rho1D4 tag (α7∆ICDcryo), reconstituted in MSP1E3D1 nanodiscs (human) (UniProt P36544); assay: cryo-EM structure; 1 µM α7 pentamer in MSP1E3D1 nanodiscs with 50 µM nanobody (50-fold excess), no nicotine (C4-Apo, E3-Apo)
[2] = target: human α7 nicotinic acetylcholine receptor L247T mutant (human) (UniProt P36544)
[3] = target: T1, human α7 nicotinic acetylcholine …; assay: SPR; α7 prep 1, + 100 µM nicotine
[4] = target: T1, human α7 nicotinic acetylcholine …; assay: SPR; α7 prep 1
[5] = target: T1, human α7 nicotinic acetylcholine …; assay: SPR; α7 prep 1, + 100 µM nicotine
[6] = target: T1, human α7 nicotinic acetylcholine …; assay: SPR; α7 prep 1
[7] = target: T1, human α7 nicotinic acetylcholine …; assay: SPR; α7 prep 2
[8] = target: human α7 nicotinic acetylcholine receptor with the ICD replaced by a short linker and a C-terminal Rho1D4 tag (α7∆ICDcryo), reconstituted in MSP1E3D1 nanodiscs (human) (UniProt P36544); assay: SPR; single-cycle kinetics, Biacore T200; α7-nanodiscs captured on anti-Rho tag antibody 1D4 immobilised on CM5; nanobodies injected (five increasing concentrations, 600 s each, 30 µl/min); buffer A (20 mM Tris, 250 mM NaCl) pH 8, 25 °C
[9] = target: human α7 nicotinic acetylcholine receptor with the ICD replaced by a short linker and a C-terminal Rho1D4 tag (α7∆ICDcryo), reconstituted in MSP1E3D1 nanodiscs (human) (UniProt P36544); assay: cryo-EM structure; 1 µM α7 pentamer in MSP1E3D1 nanodiscs with 50 µM nanobody (50-fold excess) and 100 µM nicotine (C4-Nic, E3-Nic)
[10] = target: human α7 nicotinic acetylcholine receptor with the ICD replaced by a short linker and a C-terminal Rho1D4 tag (α7∆ICDcryo), reconstituted in MSP1E3D1 nanodiscs (human) (UniProt P36544); assay: cryo-EM structure; 1 µM α7 pentamer in MSP1E3D1 nanodiscs with a sub-saturating 10 µM nanobody, no nicotine (C4partial-Apo; 2D classification for E3)
[11] = target: human α7 nicotinic acetylcholine receptor with the ICD replaced by a short linker and a C-terminal Rho1D4 tag (α7∆ICDcryo), reconstituted in MSP1E3D1 nanodiscs (human) (UniProt P36544); assay: SPR; single-cycle kinetics, Biacore T200; α7-nanodiscs captured on anti-Rho tag antibody 1D4 immobilised on CM5; nanobodies injected (five increasing concentrations, 600 s each, 30 µl/min); buffer A (20 mM Tris, 250 mM NaCl) pH 8, 25 °C; remark: listed apart in the source
[12] = target: full-length human α7 nicotinic acetylcholine receptor fused to a Rho1D4 tag at its C-terminus (α7FLcryo) (human) (UniProt P36544); assay: cryo-EM structure; 1 µM α7 pentamer in MSP1E3D1 nanodiscs with 50 µM nanobody (50-fold excess) and 100 µM nicotine (C4-Nic, E3-Nic)
[13] = target: T1, human α7 nicotinic acetylcholine …; assay: SPR; α7 prep 2

Molecule	stoichiometry N (nanobodies per α7 pentamer) [1]	koff [7] [s⁻¹]	Kd [8] [nM]	koff [8] [s⁻¹]	kon [8] [M⁻¹ s⁻¹]	stoichiometry N (nanobodies per receptor molecule) [8]	Kd [13] [nM]	also measured
human α7 nicotinic acetylcholine receptor with the ICD replaced by a short linker and a C-terminal Rho1D4 tag (α7∆ICDcryo), reconstituted in MSP1E3D1 nanodiscs (from UniProt P36544 23-502)	–	–	–	–	–	–	–	stoichiometry N [1]: 5
B1	5	0.019	1	0.0119	1.1e+07	< 3	–	increase of the holding current during pre-application of E3 in the absence of ACh (direct activation, TEVC, Xenopus oocytes) (% of the response to 0.3 µM ACh) [2]: 6; koff [3]: 0.0085 s⁻¹; koff [4]: 0.013 s⁻¹; Kd [5]: 7.4 nM; Kd [6]: 8 nM; stoichiometry N (nanobodies per α7 pentamer) [9]: 5
B2	5	–	0.2	0.00024	1.2e+06	< 3	–	stoichiometry N (nanobodies per α7 pentamer) [10]: 3; Kd [11]: 0.1 nM; stoichiometry N (nanobodies per α7 pentamer) [12]: 5
B3	–	0.011	–	–	–	–	0.62	–
B4	–	0.01	–	–	–	–	1.5	–
